What was measured:
[1] = MHET released, HPLC; higher = more MHET released; extreme values may be limits of the assay; settings: 24 h
Experimental: (§1)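 Purified PET hydrolases, 2.5 ug enzyme on 3.5 mg amorphous PET film (aFilm) or crystalline PET powder (cryPow) in 0.5 mL of 50 mM buffer (NaCitrate pH 4.5/5.5, NaPhosphate 6.5/7.5, glycine 8.5/9.5) at 60 or 70 C with shaking for 24 h. Total aromatic product by UV-Vis (260/280 nm, blank-subtracted, normalised per mg enzyme) and individual TPA, MHET, BHET concentrations by UHPLC-DAD at 240 nm; duplicate reactions.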

[2] = terephthalic acid (TPA) released, HPLC; higher = more TPA released; extreme values may be limits of the assay; settings: 24 h
Experimental: as §1

[3] = PET hydrolysis product formed (TPA+MHET+BHET, UV-Vis) per mg enzyme (mmol/mg enzyme); higher = more PET depolymerisation activity; extreme values may be limits of the assay; settings: 2 h
Experimental: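 Purified PET hydrolases (His-SUMO cleaved, E. coli C41(DE3) small-scale expression), 2.5 ug enzyme on 3.5 mg amorphous PET film (aFilm) or crystalline PET powder (cryPow) in 0.5 mL of 50 mM buffer (NaCitrate pH 4.5/5.5, NaPhosphate 6.5/7.5, glycine 8.5/9.5) at 60 or 70 C with shaking for 2 h. Soluble aromatic products (TPA+MHET+BHET) were quantified by UV-Vis at 260/280 nm, blank-subtracted against the no-enzyme control, and normalised per mg enzyme; duplicate reactions.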

[4] = as above; settings: 24 h
Experimental: as §1

QTNPYARGPNPTAASLEASAGPFTVRSFTVSRPSGYGAGTVYYPTNAGGTVGAIAIVPGYTARQSSIKWWGPRLASHGFVVITIDTNSTFDYPSSRSSQQMAALRQVASLNGDSSSPIYGKVDTARMGVMGHSMGGGASLRSAANNPSLKAAIPQAPWDSQTNFSSVTVPTLIFACENDSIAPVNSHALPIYDSMSRNAKQFLEINGGSHSCANSGNSNQALIGKKGVAWMKRFMDNDTRYSTFACENPNSTAVSDFRTANCS [DuraPETase]
Settings | MHET released, [1] [mM] | PET hydrolysis product formed, [3] | PET hydrolysis product formed, [4] | terephthalic acid, [2] [mM]
PET substrate: aFilm, 60 °C, pH 4.5 | 0 | 0 | 0 | 0.00462
PET substrate: aFilm, 60 °C, pH 5.5 | 0 | 0 | 0 | 0
PET substrate: aFilm, 60 °C, pH 6.5 | 0 | 0 | 0 | 0
PET substrate: aFilm, 60 °C, pH 7.5 | 0.182 | 0 | 0.0929 | 0.102
PET substrate: aFilm, 60 °C, pH 8.5 | 0.099 | 0 | 0.0536 | 0.0886
PET substrate: aFilm, 60 °C, pH 9.5 | 0.152 | 0.0223 | 0.126 | 0.344
PET substrate: aFilm, 70 °C, pH 4.5 | 0 | 0 | 0 | 0
PET substrate: aFilm, 70 °C, pH 5.5 | 0 | 0 | 0 | 0
PET substrate: aFilm, 70 °C, pH 6.5 | 0 | 0 | 0 | 0
PET substrate: aFilm, 70 °C, pH 7.5 | 0.00907 | 0 | 0.00371 | 0.0128
PET substrate: aFilm, 70 °C, pH 8.5 | 0.00981 | 0 | 0.00439 | 0.0158
PET substrate: aFilm, 70 °C, pH 9.5 | 0 | 0.0191 | 0.0201 | 0.0892
PET substrate: cryPow, 60 °C, pH 4.5 | 0 | 0 | 0 | 0
PET substrate: cryPow, 60 °C, pH 5.5 | 0 | 0 | 0 | 0
PET substrate: cryPow, 60 °C, pH 6.5 | 0.0436 | 0 | 0.0167 | 0.00832
PET substrate: cryPow, 60 °C, pH 7.5 | 0.21 | 0.0496 | 0.0809 | 0.0835
PET substrate: cryPow, 60 °C, pH 8.5 | 0.169 | 0.032 | 0.0578 | 0.0926
PET substrate: cryPow, 60 °C, pH 9.5 | 0.123 | 0.0701 | 0.0891 | 0.384
PET substrate: cryPow, 70 °C, pH 4.5 | 0 | 0 | 0 | 0
PET substrate: cryPow, 70 °C, pH 5.5 | 0 | 0 | 0 | 0
PET substrate: cryPow, 70 °C, pH 6.5 | 0.0107 | 0 | 0 | 0
PET substrate: cryPow, 70 °C, pH 7.5 | 0.0884 | 0.0447 | 0.0465 | 0.12
PET substrate: cryPow, 70 °C, pH 8.5 | 0.0546 | 0.0151 | 0.0236 | 0.0557
PET substrate: cryPow, 70 °C, pH 9.5 | 0 | 0.0191 | 0 | 0.0155

SNPYQRGPNPTRSALTADGPFSVATYTVSRLSVSGFGGGVIYYPTGTSLTFGGIAMSPGYTADASSLAWLGRRLASHGFVVLVINTNSRFDGPDSRASQLSAALNYLRTSDPSAVRARLDANRLAVAGHSMGGGATLRIAEQNPSLKAAIPLTPWHTQKTFNTSVPVLIVGAEADTVAPVSQHAIPFYQNLPSTTPKVYVELCNASHIAPNSNNAAISVYTISWMKLWVDNDTRYRQFLCNVNDPALCDFRTNNRHCQ [LCC-ICCG DAQI]
Settings | MHET released, [1] [mM] | PET hydrolysis product formed, [3] | PET hydrolysis product formed, [4] | terephthalic acid, [2] [mM]
PET substrate: aFilm, 60 °C, pH 4.5 | 0.0359 | 0 | 0.0166 | 0.0488
PET substrate: aFilm, 60 °C, pH 5.5 | 0.267 | 0.02083 | 0.125 | 0.279
PET substrate: aFilm, 60 °C, pH 6.5 | 0.562 | 0.0428 | 0.232 | 0.541
PET substrate: aFilm, 60 °C, pH 7.5 | 3.69 | 0.0608 | 1.37 | 3.26
PET substrate: aFilm, 60 °C, pH 8.5 | 0.3306 | 0.0525 | 0.167 | 0.517
PET substrate: aFilm, 60 °C, pH 9.5 | 2.09 | 0.0903 | 0.87 | 1.99
PET substrate: aFilm, 70 °C, pH 4.5 | 0 | 0 | 0 | 0
PET substrate: aFilm, 70 °C, pH 5.5 | 0.189 | 0.0394 | 0.0923 | 0.1646
PET substrate: aFilm, 70 °C, pH 6.5 | 0.371 | 0.0829 | 0.205 | 0.296
PET substrate: aFilm, 70 °C, pH 7.5 | 4.52 | 0.189 | 2.08 | 2.26
PET substrate: aFilm, 70 °C, pH 8.5 | 0.211 | 0.0593 | 0.1 | 0.205
PET substrate: aFilm, 70 °C, pH 9.5 | 1.54 | 0.241 | 0.859 | 1.45
PET substrate: cryPow, 60 °C, pH 4.5 | 0.033 | 0 | 0.0113 | 0.0214
PET substrate: cryPow, 60 °C, pH 5.5 | 0.189 | 0.0387 | 0.0632 | 0.0856
PET substrate: cryPow, 60 °C, pH 6.5 | 0.254 | 0.0449 | 0.0902 | 0.0997
PET substrate: cryPow, 60 °C, pH 7.5 | 0.437 | 0.0986 | 0.173 | 0.216
PET substrate: cryPow, 60 °C, pH 8.5 | 0.197 | 0.0373 | 0.0738 | 0.103
PET substrate: cryPow, 60 °C, pH 9.5 | 0.155 | 0.0245 | 0.1163 | 0.441
PET substrate: cryPow, 70 °C, pH 4.5 | 0 | 0 | 0 | 0
PET substrate: cryPow, 70 °C, pH 5.5 | 0.0777 | 0.0166 | 0.0244 | 0.04158
PET substrate: cryPow, 70 °C, pH 6.5 | 0.167 | 0.0286 | 0.0648 | 0.0736
PET substrate: cryPow, 70 °C, pH 7.5 | 0.424 | 0.0606 | 0.193 | 0.401
PET substrate: cryPow, 70 °C, pH 8.5 | 0.164 | 0.0323 | 0.0669 | 0.0916
PET substrate: cryPow, 70 °C, pH 9.5 | 0.0936 | 0.0462 | 0.132 | 0.659
